Assay results reported in paper PMC7502484.

Target: human PTH1R in transiently transfected COS-7 cell membranes (human) (UniProt Q03431)
Test: radioligand binding

Sequence of UniProt Q03431 (Q03431 27-593): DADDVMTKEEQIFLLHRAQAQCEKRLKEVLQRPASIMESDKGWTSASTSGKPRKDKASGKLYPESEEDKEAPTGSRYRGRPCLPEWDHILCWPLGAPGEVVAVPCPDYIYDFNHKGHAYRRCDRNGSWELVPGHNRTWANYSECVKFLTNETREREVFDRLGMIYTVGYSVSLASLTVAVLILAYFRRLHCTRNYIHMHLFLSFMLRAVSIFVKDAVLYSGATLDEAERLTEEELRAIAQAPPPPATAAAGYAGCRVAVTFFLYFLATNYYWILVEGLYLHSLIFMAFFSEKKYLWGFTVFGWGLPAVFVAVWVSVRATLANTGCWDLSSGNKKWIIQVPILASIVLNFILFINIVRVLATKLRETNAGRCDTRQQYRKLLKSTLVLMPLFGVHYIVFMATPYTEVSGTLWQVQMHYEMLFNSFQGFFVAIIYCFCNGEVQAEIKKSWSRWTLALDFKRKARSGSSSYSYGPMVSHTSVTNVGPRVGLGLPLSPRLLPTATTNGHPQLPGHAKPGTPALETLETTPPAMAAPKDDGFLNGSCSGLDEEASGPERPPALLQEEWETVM

IC50: 13.7 nM
Substance: PTH(1–34)^H9A (peptide)
